Measured values from PMC11467669.

Biological target: full-length USP8 (a.a. 7-1110) phosphorylated at S718 by AMPK (human) (UniProt P40818)
Assay: SEC-MALLS

full-length USP8 (a.a. 7-1110) phosphorylated at S718 by AMPK (human), sequence (P40818 7-1110): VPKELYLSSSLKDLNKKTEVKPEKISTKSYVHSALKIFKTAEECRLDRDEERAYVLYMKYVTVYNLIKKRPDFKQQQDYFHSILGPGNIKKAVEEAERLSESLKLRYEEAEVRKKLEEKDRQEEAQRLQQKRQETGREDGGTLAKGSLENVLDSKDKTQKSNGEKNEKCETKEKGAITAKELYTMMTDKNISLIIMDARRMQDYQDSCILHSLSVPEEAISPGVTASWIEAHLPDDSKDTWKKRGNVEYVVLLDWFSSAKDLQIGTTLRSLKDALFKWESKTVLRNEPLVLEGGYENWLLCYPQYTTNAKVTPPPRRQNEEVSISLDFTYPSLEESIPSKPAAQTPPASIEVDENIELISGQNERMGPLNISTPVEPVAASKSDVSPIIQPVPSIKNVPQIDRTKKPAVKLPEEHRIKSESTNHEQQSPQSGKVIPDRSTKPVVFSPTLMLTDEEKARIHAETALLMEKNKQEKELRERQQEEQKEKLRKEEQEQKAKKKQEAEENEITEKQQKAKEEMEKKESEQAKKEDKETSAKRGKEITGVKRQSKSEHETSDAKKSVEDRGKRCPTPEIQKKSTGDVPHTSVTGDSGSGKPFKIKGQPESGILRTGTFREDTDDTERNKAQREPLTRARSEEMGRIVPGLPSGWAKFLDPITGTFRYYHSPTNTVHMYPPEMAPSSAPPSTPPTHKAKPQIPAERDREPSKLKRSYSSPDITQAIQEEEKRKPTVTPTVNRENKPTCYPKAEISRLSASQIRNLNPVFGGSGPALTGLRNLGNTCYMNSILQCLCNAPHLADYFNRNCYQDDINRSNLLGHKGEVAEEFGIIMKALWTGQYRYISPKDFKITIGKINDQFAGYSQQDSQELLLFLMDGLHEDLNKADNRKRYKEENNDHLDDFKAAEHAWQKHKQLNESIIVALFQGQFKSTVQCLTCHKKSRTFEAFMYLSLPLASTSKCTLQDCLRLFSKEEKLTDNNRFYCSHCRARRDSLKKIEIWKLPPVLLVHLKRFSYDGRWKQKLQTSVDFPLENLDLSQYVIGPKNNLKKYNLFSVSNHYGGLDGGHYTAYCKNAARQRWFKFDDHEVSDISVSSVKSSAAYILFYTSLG

- stoichiometry N (14-3-3γ dimer per USP8): 1
Substance: 14-3-3γ (from UniProt P61981 1-247) (natural protein)
